Experimental findings from publication PMC11161628, “Omecamtiv mecarbil and Mavacamten target the same myosin pocket despite opposite effects in heart contraction” (Nature Communications, 2024) are described below.

The data set deals with the molecule itself. Description: crystal structure; PPS-S1-Mava (crystal type B): S1 with Mg.ADP.BeFx and 5 mM Mavacamten, trypsin 1:500 (w:w), hanging drop at 4 °C, 20.5% PEG3350, 7.5% NaTacsimate pH 6.0, 5 mM TCEP; two molecules per asymmetric unit; 2.61 Å.

B1: Bovine β-cardiac myosin S1 fragment, heavy chain (domain or fragment, UniProt Q9BE39 1-810, looked up)
chain: MVDAEMAAFGEAAPYLRKSEKERLEAQTRPFDLKKDVFVPDDKEEFVKATILSREGGKVTAETEHGKTVTVKEDQVLQQNPPKFDKIEDMAMLTFLHEPAVLYNLKERYASWMIYTYSGLFCVTINPYKWLPVYNAEVVAAYRGKKRSEAPPHIFSISDNAYQYMLTDRENQSILITGESGAGKTVNTKRVIQYFAVIAAIGDRSKKEQATGKGTLEDQIIQANPALEAFGNAKTVRNDNSSRFGKFIRIHFGATGKLASADIETYLLEKSRVIFQLKAERDYHIFYQILSNKKPELLDMLLITNNPYDYAFISQGETTVASIDDAEELMATDNAFDVLGFTTEEKNSMYKLTGAIMHFGNMKFKLKQREEQAEPDGTEEADKSAYLMGLNSADLLKGLCHPRVKVGNEYVTKGQNVQQVVYAKGALAKAVYERMFNWMVTRINATLETKQPRQYFIGVLDIAGFEIFDFNSFEQLCINFTNEKLQQFFNHHMFVLEQEEYKKEGIEWEFIDFGMDLQACIDLIEKPMGIMSILEEECMFPKATDMTFKAKLFDNHLGKSSNFQKPRNIKGKPEAHFSLIHYAGTVDYNIIGWLQKNKDPLNETVVDLYKKSSLKMLSSLFANYAGFDTPIEKGKGKAKKGSSFQTVSALHRENLNKLMTNLRSTHPHFVRCIIPNETKSPGVIDNPLVMHQLRCNGVLEGIRICRKGFPNRILYGDFRQRYRILNPAAIPEGQFIDSRKGAEKLLGSLDIDHNQYKFGHTKVFFKAGLLGLLEEMRDERLSRIITRIQAQSRGVLSRMEFKKLLERRDS
notes: Native protein cut by proteases, not a recombinant construct; also called bovine cardiac S1 fragment; PPS-S1-Mava; source: purified from frozen bovine heart (Pel-Freez Biologicals); limited chymotryptic digestion of the full-length myosin, Mono-Q; trypsin present in the crystallization drops
B1: the binding result is “binds”.
